Drawing on patent US20220195015A1 (published 2022), this text covers EC50 for 9 molecules.

Where a chain is given by its changes, count along the chain named.

The target in the test is SARS-CoV-2 receptor binding domain (RBD), wild type (SARS-CoV-2, UniProt P0DTC2 319-539). The test can be described thus: ELISA, RBD protein coated, mAb titrated. On the technique in general: An ELISA detects its analyte on a solid surface through an enzyme-linked reagent.

B1: C062 (antibody, V domains shown)
VH: EVQLVESGGGLVKPGGSLRLTCAASGFTFSTYSMNWVRQAPGKGLEWVSSISSSSSYIYYADSVKGRFTISRDNAKNSLYLQMNSLRAEDTAVYYCARERGYYGGKTPPFLGGQGTLVTVSS
VL: NFMLTQPHSVSESPGKTVTISCTGSSGSIASNYVQWYQQRPGSAPTTVIYEDNQRPSGVPDRFSGSIDSSSNSASLTISGLKTEDEADYYCQSYDSSNYWVFGGGTKLTVL
In the case of B1, the EC50 (as a rule, the concentration that produces a half-maximal response) turned out to be 4.69 ng/mL.

B2: C060 (antibody, V domains shown)
VH: EVQLVESGGGLVQPGGSQRLSCAASGFTVSSNYMSWIRQAPGKGLEWVSVIYSGGSAYYVDSVKGRFTISRDNSKNTLYLQMNSLRPEDTAVYYCARIANYMDVWGKGTTVTVSS
VL: EIVMTQSPATLSVSPGERATLSCRASQSVSSHLAWYQQKPGQAPRLLIYGASTRATGIPTRFSGSGSGTEFTLTISSLQSEDFAVYYCQQYNNWPPLTFGGGTKVEIK
B2: the midpoint of the response, the EC50, lay at 43.5 ng/mL.

B3: C518 (antibody, V domains shown)
VH: EVQLVESGGGLIQPGGSLRLSCAASGITVSSNYMSWVRQAPGKGLEWVSVMYAGGSSFYADSVKGRFTISRDNSKNTLYLQMNSLRVEDTAVYYCARDLIALGVDVWGQGTTVTVSS
VL: DIQLTQSPSFLSASVGDRVTITCRASQGISSYLAWYQQKPGKAPKLLIYAASTLQSGVPSRFSGSGSGTEFTLTISSLQPEDFATYYCQLLNSYPMCSFGQGTKLEIK
B3: the EC50 came out at 1.13 ng/mL.

B4: C085 (antibody, V domains shown)
VH: QVQLQESGPGLVKPSETLSLTCTVSGDSMSSYFWTWIRQPPGKGLECIGYFYPSGSTNYNPSLKSRVTISIDTSKNQFSLKLSSVTAADTAVYYCARLKQQLVGFGWFDPWGQGTLVTVSS
VL: QSVLTQPPSVSGAPGQRVTISCTGSSSNIGADYDVHWYQQFPGTAPKVLIYANTNRPSGVPERFSGSKSGTSASLAITGLQAEDEADYYCQSYDHSLNWVFGGGTKLTVL
Take B4: the midpoint of the response, the EC50, lay at 2.38 ng/mL.

B5: C086 (antibody, V domains shown)
VH: B4 VH with M29I, S31T, T35A, K43R, Y50S, Y52F, N58Y, I71V, S83N, T115S
VL: B4 VL with S26I, D34E, Q39V, G66A, S96R, N98H
Regarding B5, the response was half-maximal at 3.01 ng/mL (EC50).

B6: C519 (antibody, V domains shown)
VH: QVQLQESGPGLVKPSETLSLTCAVSGGSISSYYWSWIRQPPGKGLEWIGYIDTSGSTNYNPSLKSRVTMSVDTSKNQFSLNVNSVTAADTAVYFCGVCAGDCYAASVFDYRGQGTLVTVSS
VL: DIQMTQSPSSLSASVGDRVTITCQASQDIIFYLNWYQQKPGKAPKLLIYDASNLKTGVPSRFSGSGSGTDFAFTISSLQPEDIATYYCQQYDNLPLTFGGGTKVEIK
B6 registered an EC50 of 1.06 ng/mL.

B7: C059 (antibody, V domains shown)
VH: QVQLVQSGAEVKKPGASIKVSCKASGYTFTDYSMHWVRQAPGQGLEWMGWINPNSGGTKYAQKFQGWVTMTRDMSITTVYMELTRLRSDATAVFYCARGPLFHKLVYDSWTGYHDGFDIWGQGTMVTVSS
VL: QSALTQPASVSGSPGQSITISCTGTSSDVGGYNYVSWYQHYPGKAPKLMIYEVTHRPSGVSNRFSGSKSGNTASLTISGLQAEDEADYYCSSSTNSSTWVFGGGTKMTVL
B7: the EC50 worked out at 1.88 ng/mL.

B8: C089 (antibody, V domains shown)
VH: QVQLVESGGGVVQPGRSLRLSCAASGFTFRTYAMHWVRQAPGKGLEWVAVILSDGNNKYYADSVKGRFTISRDNSKNTLYLQMNSLRAEDTAIFYCAREQEANYYDISGYYHWGESLGYWGQGTLVTVSS
VL: DIQLTQSPSFLSASVGDRVTITCRASQGISSYLAWYQQKPGKAPKLLIYGASTLQSGVPSRFSGSGSGTEFTLTISSLQPEDFASYYCQKVNSHPPGLTFGGGTKVEIK
As to B8, the EC50 was 4.69 ng/mL.

B9: C090 (antibody, V domains shown)
VH: B8 VH
VL: B8 VL with L46F, H94Y
B9 gave an EC50 of 6.22 ng/mL.
